The target of the assay is BACE1 (beta-secretase, beta-site APP cleaving enzyme), endogenous enzyme of HEK/hAPP cells (human, UniProt P56817 46-501). The assay is described as follows: cell-based or functional assay.
Sequence of BACE1 (beta-secretase, beta-site APP cleaving enzyme), endogenous enzyme of HEK/hAPP cells (P56817 46-501): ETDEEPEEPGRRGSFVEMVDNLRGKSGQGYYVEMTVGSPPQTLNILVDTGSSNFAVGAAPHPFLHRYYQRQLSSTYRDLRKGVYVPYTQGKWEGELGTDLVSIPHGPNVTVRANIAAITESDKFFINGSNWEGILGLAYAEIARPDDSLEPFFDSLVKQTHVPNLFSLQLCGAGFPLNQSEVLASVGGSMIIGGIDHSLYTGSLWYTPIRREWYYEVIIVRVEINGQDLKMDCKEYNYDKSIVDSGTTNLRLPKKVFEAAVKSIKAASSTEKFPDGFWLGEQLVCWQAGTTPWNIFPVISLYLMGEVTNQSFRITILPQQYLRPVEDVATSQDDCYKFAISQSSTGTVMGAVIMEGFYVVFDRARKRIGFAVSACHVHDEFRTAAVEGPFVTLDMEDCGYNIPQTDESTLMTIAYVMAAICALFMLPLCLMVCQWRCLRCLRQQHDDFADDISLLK

B1: anti-BACE1 peptide-antibody complex (peptide of SEQ ID NO: 1 fused to the anti-BACE1 antibody heavy chain, SEQ ID NO: 429, assembled with the anti-BACE1 … (antibody)
heavy: not shown
light: DIQMTQSPSSLSASVGDRVTITCRASQDVSTAVAWYQQKPGKAPKLLIYSASFLYSGVPSRFSGSGSGTDFTLTISSLQPEDFATYYCQQFPTYLPTFGQGTKVEIKRTVAAPSVFIFPPSDEQLKSGTASVVCLLNNFYPREAKVQWKVDNALQSGNSQESVTEQDSKDSTYSLSSTLTLSKADYEKHKVYACEVTHQGLSSPVTKSFNRGEC
As for B1, the “IC50 (read off the curve), Aβ1-40 secretion from HEK/hAPP cells (HTRF, Percent of Cntl)” value was roughly 10 nM.

B2: anti-BACE1 antibody comprising an anti-BACE1 antibody heavy chain of SEQ ID NO: 427 and an anti-BACE1 antibody light chain of SEQ ID NO: 428 (antibody, human IgG1, kappa)
heavy: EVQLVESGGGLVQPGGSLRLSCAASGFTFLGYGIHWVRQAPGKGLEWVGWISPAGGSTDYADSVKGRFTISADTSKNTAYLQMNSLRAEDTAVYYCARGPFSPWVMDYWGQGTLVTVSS
light: B1 light
Consider B2, for which the “IC50 (read off the curve), Aβ1-40 secretion from HEK/hAPP cells (HTRF, Percent of Cntl)” value is roughly 10 nM.
